# Laboratory results: US10942185B2, “Therapeutic and diagnostic methods for manipulating phagocytosis through calreticulin and low density lipoprotein-related receptor” (The Board of Trustees of the Leland Stanford Junior …, priority 2010, dated 2021)
# Entries after “also recorded” stand apart in the source; their conditions may differ.
# B1: exogenous CRT: recombinant CRT human protein (Thermo Scientific), adsorbs onto the cellular surface and directly binds LRP (protein, UniProt P27797 18-417, looked up)
# Calreticulin: EPAVYFKEQFLDGDGWTSRWIESKHKSDFGKFVLSSGKFYGDEEKDKGLQTSQDARFYALSASFEPFSNKGQTLVVQFTVKHEQNIDCGGGYVKLFPNSLDQTDMHGDSEYNIMFGPDICGPGTKKVHVIFNYKGKNVLINKDIRCKDDEFTHLYTLIVRPDNTYEVKIDNSQVESGSLEDDWDFLPPKKIKDPDASKPEDWDERAKIDDPTDSKPEDWDKPEHIPDPDAKKPEDWDEEMDGEWEPPVIQNPEYKGEWKPRQIDNPDYKGTWIHPEIDNPEYSPDPSIYAYDNFGVLGLDLWQVKSGTIFDNFLITNDEAYAEEFGNETWGVTKAAEKQMKDKQDEEQRLKEEEEDKKRKEEEEAEDKEDDEDKDEDEEDEEDKEEDEEEDVPGQAKDEL
# B2: anti-CD47 antibody: blocking monoclonal anti-human CD47 antibody, clone B6H12.2, ATCC (antibody, V domains shown)
# VH: EVQLVESGGDLVKPGGSLKLSCAASGFTFSGYGMSWVRQTPDKRLEWVATITSGGTYTYYPDSVKGRFTISRDNAKNTLYLQIDSLKSEDTAIYFCARSLAGNAMDYWGQGTSVTVSS
# VL: DIVMTQSPATLSVTPGDRVSLSCRASQTISDYLHWYQQKSHESPRLLIKFASQSISGIPSRFSGSGSGSDFTLSINSVEPEDVGVYYCQNGHGFPRTFGGGTKLEIK
# Legend:
# Molm 13 cells = assay: Cell surface calreticulin on staurosporine-treated Molm 13 cells, flow cytometry; format: cell-based, human; conditions: live cells, compared to isotype control
# Text: (§1) FIGS. 14A-14B. […] Live cells were stained with anti-calreticulin (CRT) antibody conjugated by a fluorophore. […] Live cells were stained with LRP1 cluster IV-Fc protein followed by a secondary anti-Fc antibody conjugated to a fluorophore.
# [1] = biological target: T1, Calreticulin on the cell surface of Molm 13 cells (Homo sapiens, UniProt P27797); assay: LRP1 cluster IV-Fc binding to staurosporine-treated Molm 13 cells, flow cytometry
# T1 construct: endogenous in cells; host or cells: Molm 13 (human AML cell line), treated with staurosporine
# T1 sequence (P27797 18-417): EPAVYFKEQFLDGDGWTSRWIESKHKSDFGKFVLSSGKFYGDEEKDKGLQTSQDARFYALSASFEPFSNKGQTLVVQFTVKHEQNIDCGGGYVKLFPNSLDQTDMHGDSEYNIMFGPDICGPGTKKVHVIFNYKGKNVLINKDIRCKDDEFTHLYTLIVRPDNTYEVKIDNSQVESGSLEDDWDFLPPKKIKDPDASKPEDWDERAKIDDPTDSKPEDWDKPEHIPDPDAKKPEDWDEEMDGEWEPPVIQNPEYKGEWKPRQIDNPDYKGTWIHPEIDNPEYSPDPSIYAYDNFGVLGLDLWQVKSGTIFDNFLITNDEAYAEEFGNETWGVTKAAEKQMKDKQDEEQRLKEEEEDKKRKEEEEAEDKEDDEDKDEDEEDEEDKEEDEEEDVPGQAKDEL
# Text: as §1
# [2] = tested on: primary human cancer cells; assay: In vitro phagocytosis assay, primary human cancer cells with human macrophages; format: cell-based; conditions: two hours; for phagocytosis of primary human cancer cells, agent alone: compared to IgG1 isotype control
# Description: (§2) Given the known role of CRT as a pro-phagocytic signal, its correlation with CD47 expression (FIG. 2A), and its ability to be counteracted by CD47 (FIG. 2), we investigated whether the expression of cell surface CRT on cancer but not normal cells could explain the selective targeting of tumor cells by a blocking anti-CD47 antibody. In vitro phagocytosis assays were performed by incubating primary human normal cells or cancer cells with human macrophages in the presence of anti-CD47 antibody. CD47 was expressed on all normal and cancer cells profiled (FIG. 2A and FIG. 7, 9), but expression of calreticulin was primarily restricted to tumor cells (FIG. 1A,B). […] (FIG. 3C).
# (§3) Generation of human macrophages and in vitro phagocytosis assays were performed as previously described. Primary human samples or cell lines were incubated with 10 μg/ml IgG1 isotype control (Ebiosciences), 10 μg/ml anti-CD47 antibody (clone B6H12.2, ATCC), 4 μg/ml calreticulin blocking peptide (MBL International Corporation), 10 μg/ml RAP (Fitzgerald Industries International), or 125 μg/ml recombinant CRT human protein (Thermo Scientific). Per MBL, confirmation of blocking activity was performed by Western blot analysis, verified by incubation of an anti-CRT antibody with 5 times higher concentration of the peptide and performing a Western blot analysis to determine if the specific band had been diminished. Cells were then analyzed by fluorescence microscopy to determine the phagocytic index (number of cells ingested per 100 macrophages).
# NBM cells = assay: In vitro phagocytosis assay, human NBM cells with human macrophages; format: cell-based; conditions: vs vehicle or IgG1 isotype control
# Text: Next, the relationship between the level of tumor cell surface CRT expression and level of phagocytosis by anti-CD47 antibody was investigated. Cell surface CRT expression on tumor cells positively correlated with the degree of anti-CD47 antibody mediated phagocytosis, regardless of tumor cell type (FIG. 3D). Finally, given that normal cells express minimal levels of cell surface CRT, we investigated whether the addition of CRT to the surface of these cells could enable phagocytosis.
# as §3
# [3] = tested on: primary human normal cells; assay: In vitro phagocytosis assay, normal human tissue cells with human macrophages; format: cell-based; conditions: several normal human tissue types, vs IgG1 isotype control
# Description: as §2
# Generation of human macrophages and in vitro phagocytosis assays were performed as previously described. Primary human samples or cell lines were incubated with 10 μg/ml IgG1 isotype control (Ebiosciences), 10 μg/ml anti-CD47 antibody (clone B6H12.2, ATCC), 4 μg/ml calreticulin blocking peptide (MBL International Corporation), 10 μg/ml RAP (Fitzgerald Industries International), or 125 μg/ml recombinant CRT human protein (Thermo Scientific). […] Cells were then analyzed by fluorescence microscopy to determine the phagocytic index (number of cells ingested per 100 macrophages).
molecule,measurement,setting,value
CN[C@@H]1C[C@H]2O[C@@](C)([C@@H]1OC)n1c3ccccc3c3c4c(c5c6ccccc6n2c5c31)C(=O)NC4 [staurosporine],cell surface calreticulin,Molm 13 cells,increase in cell surface calreticulin
"LRP1 cluster IV-Fc protein: LRP1 cluster IV fused to Fc, used to stain cell surface calreticulin",binding to staurosporine-treated Molm 13 cells,"[1]; live cells, secondary anti-Fc antibody, flow cytometry",increase in the binding
"RAP: receptor-associated protein (RAP), an inhibitor of LRP (Fitzgerald Industries International)",anti-CD47 antibody-mediated phagocytosis of cancer cells,[2]; in the presence of anti-CD47 antibody,completely abrogated in most cases; also recorded: completely abrogated anti-CD47 antibody-mediated phagocytosis
same,"phagocytosis of primary human cancer cells, agent alone",[2],did not enable phagocytosis
same,"phagocytosis of primary human cancer cells, agent alone",[2]; listed as LRP,no effect on phagocytosis
same,blocking of LRP1 cluster IV-Fc protein binding,[1]; staurosporine-treated Molm 13 cells,can be blocked
B1,phagocytosis of NBM cells,NBM cells,enabled phagocytosis of NBM cells; also recorded: enabled increased phagocytosis
same,phagocytosis of NBM cells,NBM cells; listed as Exogenous CRT,enabled increased phagocytosis of NBM cells
B2,"phagocytosis of primary human cancer cells, agent alone",[2],robustly phagocytosed; also recorded: are phagocytosed; also recorded: enabled phagocytosis of cancer cells
same,phagocytosis of normal human cells,[3],not phagocytosed; also recorded: No difference in phagocytosis
same,phagocytosis of NBM cells,NBM cells,did not; also recorded: No difference in phagocytosis
